According to doi:10.1101/2021.09.03.458953:
Like-named read-outs stand apart in the source and are kept apart here.

Legend:
[1] = molecular target: Sarbecovirus (SARS-CoV-2 / SARS-CoV) spike C-terminal hepta-peptide, wild type (UniProt P0DTC2); details: pH 7.5; 25°C; 150 mM NaCl
[2] = molecular target: Sarbecovirus (SARS-CoV-2 / SARS-CoV) spike C-terminal hepta-peptide, wild type (UniProt P0DTC2); details: pH 7.5; 25°C; 150 mM NaCl; remark: listed apart in the source
[3] = molecular target: Sarbecovirus (SARS-CoV-2 / SARS-CoV) spike C-terminal hepta-peptide, wild type (UniProt P0DTC2); details: pH 6.5; 25°C; 150 mM NaCl

**Q.** Which “equilibrium KD” value [1] does the source give for “Coatomer subunit alpha N-terminal WD40 domain (alphaCOPI-WD40) L181K;L185K;I192K;L196K;F197K” here?
**A.** Its value is 4.17 ± 0.04 µM.

**Q.** What about the “kinetic KD” value [2] of the same substance?
**A.** The value was 2.75 ± 0.09 µM.

**Q.** What about the “equilibrium KD” value [3] of the same substance?
**A.** The value was 1.40 ± 0.15 µM.
